From patent US20240228612A1 (SICHUAN KELUN BIOTECH BIOPHARMACEUTICAL, published 2024)

Target: T1, human Nectin-4 on cell membrane surface (human, UniProt Q96NY8 32-510)
T1 construct: whole, on cells; also called A549-Nectin-4; T24-Nectin-4
T1 sequence (looked up): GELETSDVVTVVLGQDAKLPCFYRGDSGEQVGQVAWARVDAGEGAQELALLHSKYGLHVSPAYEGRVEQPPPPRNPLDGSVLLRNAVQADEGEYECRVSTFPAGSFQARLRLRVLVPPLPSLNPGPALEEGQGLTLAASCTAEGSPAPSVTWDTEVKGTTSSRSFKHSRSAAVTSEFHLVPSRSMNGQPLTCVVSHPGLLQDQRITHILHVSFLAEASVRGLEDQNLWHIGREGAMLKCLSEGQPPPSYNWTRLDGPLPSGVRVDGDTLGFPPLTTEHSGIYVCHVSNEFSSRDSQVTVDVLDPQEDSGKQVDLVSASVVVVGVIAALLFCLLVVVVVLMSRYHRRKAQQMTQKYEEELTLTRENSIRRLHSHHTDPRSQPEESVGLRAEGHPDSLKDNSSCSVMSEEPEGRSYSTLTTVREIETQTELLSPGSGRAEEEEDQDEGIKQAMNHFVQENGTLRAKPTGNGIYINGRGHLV
Assay: flow cytometry on NCI-N87 cells

EC50: 0.0164 µg/mL
B1: anti-human Nectin-4 humanized monoclonal antibody 56HZ (antibody, human IgG1, kappa, V domains shown)
VH: QVQLQESGPGLVKPSQTLSLTCTVSGYFNSITSDYDWHWIRHHPGKGLEWMGYISFSGRTYYNPSLKSRVTISHDTSKNQFSLKLSSVTAADTAVYYCARGNYDGFDYWGQGTLVTVSS
VL: DIVLTQSPATLSLSPGERATLSCRASQNIGTSIHWYQHKPGQSPRLLIKFASESISGIPARFSGSGSGTDFTLTISSLEPEDFAVYYCQQSKSWPTYTFGGGTKVEIKR
notes: Human IgG1 heavy chain constant region, human kappa light chain constant region; expressed in CHO-E cells
